Where no end group is shown, it is not given here.
Biological target: T1, cleaved H3 tail peptide (H3 22-37), methylated at K27 (not fully specified; also: K27 methylated, degree not given here, biotinylated, site not given here)
T1 construct: Mimics the H3 tail after cleavage between A21 and T22; also called cleaved peptide (amino acid residues 22-37)
T1 peptide: TKAARK(Me)SAPATGGVKK
Assay: fluorescence anisotropy

fold decrease of binding against the non-cleaved peptide (residues 18-37): 3 fold
B1: chromodomain of mouse CBX7 (other, UniProt Q8VDS3 1-70, looked up)
chain: MELSAIGEQVFAVESIRKKRVRKGKVEYLVKWKGWPPKYSTWEPEEHILDPRLVMAYEEKEERDRASGYR
notes: domain: chromodomain; also called Cbx7-CD protein; chromodomain of Pc (mouse CBX7)

Reference: US20110312897A1 (ROCKEFELLER UNIVERSITY, published 2011)
